In PMC1911201 (Molecular Systems Biology, 2007):

Experiments:
Test in all cases: peptide or protein array
Ykr021w = target: T1, Ykr021w (S. cerevisiae, UniProt P36117 1-915)
T1 sequence (looked up): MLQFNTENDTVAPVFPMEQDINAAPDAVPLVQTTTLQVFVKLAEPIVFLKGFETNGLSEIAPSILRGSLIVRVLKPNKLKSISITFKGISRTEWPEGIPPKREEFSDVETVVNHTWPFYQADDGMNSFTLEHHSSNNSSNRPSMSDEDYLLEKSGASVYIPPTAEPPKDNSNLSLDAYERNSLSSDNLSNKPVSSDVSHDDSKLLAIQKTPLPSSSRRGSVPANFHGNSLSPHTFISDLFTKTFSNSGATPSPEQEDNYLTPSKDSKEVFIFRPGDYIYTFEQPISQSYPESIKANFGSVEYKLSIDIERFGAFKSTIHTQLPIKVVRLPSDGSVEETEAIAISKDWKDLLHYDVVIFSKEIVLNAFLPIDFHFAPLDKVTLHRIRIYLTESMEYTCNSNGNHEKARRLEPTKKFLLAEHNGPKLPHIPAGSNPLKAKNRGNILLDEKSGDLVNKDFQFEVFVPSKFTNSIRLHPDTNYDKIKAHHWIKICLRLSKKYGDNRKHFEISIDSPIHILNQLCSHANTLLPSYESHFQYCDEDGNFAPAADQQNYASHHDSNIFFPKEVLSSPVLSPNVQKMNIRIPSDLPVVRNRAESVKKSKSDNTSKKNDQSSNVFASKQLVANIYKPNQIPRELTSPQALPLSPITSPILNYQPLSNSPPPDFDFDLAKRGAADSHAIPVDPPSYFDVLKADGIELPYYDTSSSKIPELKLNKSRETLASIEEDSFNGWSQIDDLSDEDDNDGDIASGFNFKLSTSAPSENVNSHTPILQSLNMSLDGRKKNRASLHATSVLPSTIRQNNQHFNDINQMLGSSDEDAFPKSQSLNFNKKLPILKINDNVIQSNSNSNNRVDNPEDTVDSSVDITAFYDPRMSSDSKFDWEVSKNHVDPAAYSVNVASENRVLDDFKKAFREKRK

Dis3 = target: T2, Dis3 (S. cerevisiae, UniProt Q08162 1-1001)
T2 sequence (looked up): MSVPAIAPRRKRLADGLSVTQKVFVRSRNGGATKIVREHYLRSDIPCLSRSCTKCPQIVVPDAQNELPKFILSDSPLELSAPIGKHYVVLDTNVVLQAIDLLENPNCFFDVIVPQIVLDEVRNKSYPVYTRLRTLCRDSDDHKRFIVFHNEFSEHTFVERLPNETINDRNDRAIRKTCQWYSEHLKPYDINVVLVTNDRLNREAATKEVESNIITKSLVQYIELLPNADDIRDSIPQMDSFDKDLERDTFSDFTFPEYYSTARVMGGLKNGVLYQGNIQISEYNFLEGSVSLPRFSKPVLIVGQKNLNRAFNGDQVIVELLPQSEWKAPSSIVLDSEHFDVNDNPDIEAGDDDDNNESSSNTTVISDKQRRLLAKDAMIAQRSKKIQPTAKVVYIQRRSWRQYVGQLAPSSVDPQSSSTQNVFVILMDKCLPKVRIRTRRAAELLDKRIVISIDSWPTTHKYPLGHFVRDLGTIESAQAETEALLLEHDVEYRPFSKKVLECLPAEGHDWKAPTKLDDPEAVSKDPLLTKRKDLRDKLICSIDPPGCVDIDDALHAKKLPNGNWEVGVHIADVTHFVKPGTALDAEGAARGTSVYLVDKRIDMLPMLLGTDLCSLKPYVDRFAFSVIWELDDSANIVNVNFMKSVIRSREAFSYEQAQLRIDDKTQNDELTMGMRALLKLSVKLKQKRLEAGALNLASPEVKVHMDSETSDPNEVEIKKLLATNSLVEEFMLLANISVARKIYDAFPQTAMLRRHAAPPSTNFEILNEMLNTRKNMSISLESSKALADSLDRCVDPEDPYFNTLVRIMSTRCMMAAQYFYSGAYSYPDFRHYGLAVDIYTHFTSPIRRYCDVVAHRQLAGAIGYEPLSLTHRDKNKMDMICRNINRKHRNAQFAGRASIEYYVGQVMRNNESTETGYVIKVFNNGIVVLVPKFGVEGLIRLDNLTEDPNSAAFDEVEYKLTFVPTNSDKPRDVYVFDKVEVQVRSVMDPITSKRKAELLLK

Yjl084c = target: T3, Yjl084c (S. cerevisiae, UniProt P47029 1-1046)
T3 sequence (looked up): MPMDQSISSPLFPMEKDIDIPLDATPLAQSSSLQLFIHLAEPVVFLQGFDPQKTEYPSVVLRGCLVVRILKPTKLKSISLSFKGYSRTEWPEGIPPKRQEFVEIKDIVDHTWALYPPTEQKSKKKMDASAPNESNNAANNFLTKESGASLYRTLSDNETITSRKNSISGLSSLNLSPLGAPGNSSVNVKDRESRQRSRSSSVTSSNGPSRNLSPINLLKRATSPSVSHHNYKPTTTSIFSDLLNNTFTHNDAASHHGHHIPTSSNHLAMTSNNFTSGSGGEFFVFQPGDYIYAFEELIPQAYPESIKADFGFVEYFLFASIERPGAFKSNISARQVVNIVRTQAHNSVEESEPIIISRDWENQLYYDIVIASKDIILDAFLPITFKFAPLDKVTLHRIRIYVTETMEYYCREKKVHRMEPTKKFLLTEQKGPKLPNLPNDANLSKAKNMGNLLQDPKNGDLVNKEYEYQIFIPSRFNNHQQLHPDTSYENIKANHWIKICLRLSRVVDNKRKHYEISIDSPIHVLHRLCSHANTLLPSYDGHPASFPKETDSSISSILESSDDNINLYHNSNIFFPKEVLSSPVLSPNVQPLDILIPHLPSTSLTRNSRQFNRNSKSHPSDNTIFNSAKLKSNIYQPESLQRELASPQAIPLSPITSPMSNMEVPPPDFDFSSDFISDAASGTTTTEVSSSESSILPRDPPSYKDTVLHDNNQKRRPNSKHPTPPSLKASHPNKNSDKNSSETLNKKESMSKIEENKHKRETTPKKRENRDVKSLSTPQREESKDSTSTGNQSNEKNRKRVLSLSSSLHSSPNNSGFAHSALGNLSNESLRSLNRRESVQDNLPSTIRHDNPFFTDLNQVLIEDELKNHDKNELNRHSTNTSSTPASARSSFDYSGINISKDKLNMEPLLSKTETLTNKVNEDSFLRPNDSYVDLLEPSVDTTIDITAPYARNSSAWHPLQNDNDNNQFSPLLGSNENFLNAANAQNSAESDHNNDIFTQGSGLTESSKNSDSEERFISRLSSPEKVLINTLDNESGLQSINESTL

Measured: binding result

B1: Rsp5 (enzyme)
chain: not shown
modifications: labeled with AlexaFluor 647 (Microscale Protein Labeling kit)
binds: all assays above
